Source: article PMC3731059

Tests used:
Experiment in all cases: FXa generation assay
[1] = target: WT FVIIIa (thrombin-activated B domainless factor VIII) (UniProt P00451)
[2] = target: FVIIIa Gly1750Cys/Arg2116Cys (thrombin-activated B domainless factor VIII variant) (UniProt P00451)
[3] = target: FVIIIa Ala1866Cys/Ser2119Cys (thrombin-activated B domainless factor VIII variant) (UniProt P00451)
[4] = target: FVIIIa Arg2116Ala (thrombin-activated B domainless factor VIII variant) (UniProt P00451)
[5] = target: FVIIIa Ser2029Cys/Pro2292Cys (thrombin-activated B domainless factor VIII variant) (UniProt P00451)
[6] = target: FVIIIa Arg2116Val (thrombin-activated B domainless factor VIII variant) (UniProt P00451)

Kd [1]: 0.43 nM
Kd [2]: 0.44 nM
Kd [3]: 0.4 nM
Kd [4]: 0.45 nM
Kd [5]: 0.33 nM
Kd [6]: 0.4 nM
Substance: factor IXaβ (enzyme)
